According to a protein production outcome set (Wang et al. 2014):

assay: label from the status in PepcDB records

**Q.** For “MMKEFTPAPDSASIVSVTDRVKPVALGMGVTSVHFLGDRAAFVGGEENVAFVDSQGEITTVAVHGGGILSTASDGKRLVMGGDDGKVVSLDAKGEVTLLATDPKRRWIDAVALHADGAFAWSAGKTATVKSGKTEEKSLEVPSTVGGLAFAPKGLRLAIAHYNGATLWFPNMAASAEFLPWAGSHHAVTFSPDNKFLVTAMHEPALHGWRLADNRHMRMTGYPGRVRSMSWSAGGKALATSGADTVILWPFGSKDGPMGKEPAMLAPLQARVSVVACHPKNDILAAGYSDGTVLMVRLEDGAEILVRRNGTPPVAALAWNAKGTLLAFADENGDGGLLELLEHHHHHH”, which protein production is on record?
**A.** The protein production was “not failed”.

**Q.** For “MMKIIAFVGMPASGKSEASRIAAEMGIPVIIMGDVIRKEVLKRGLEPNDSNTGMVATDLRKHEGMGAVARRCISQIRETGSELVVVDGVRGIAEVECFRKEFGKGFILISIYAPIEVRFSRVQKRGRSDDMNSIEGLRHRDERELSWGMGEAIDASNVEIENNFTLETFRKDVRDVLSNYLEADLEK”, which protein production is on record?
**A.** Its protein production is “not failed”.

**Q.** With “MMKKLFLDTHSASGEIKLTDGLLYWFPQFLTPIQADQAFQQMLTHLDWQQKSIRLFGKSVLQPRLIAWYGEKGYRYSGLSLSAQPFPPPLLTLKTQCEQAAQAPFNSVLANLYRDGQDSMGWHQDNEPELGSNPVIASLSLGESRRFLLRHHKDHALQVECELNHGDLLIMAGNTQHFWQHAIPKTRQTKQTRINLTFRNILLEHHHHHH” as the sequence, how does the protein production read?
**A.** The protein production was “not failed”.

**Q.** With “MMKKTAAIISACMLTFALSACSGSNYVMHTNDGRTIVSDGKPQTDNDIGMISYKDANGNKQQINRTDVKEMVELEQLEHHHHHH” as the sequence, how does the protein production read?
**A.** The protein production was “failed”.

**Q.** For “MMKLKKVLVLGGTRFFGKHLVEALLKDGHDVTIATRGITEDSFGSRVKRLIVDREDEKQLAERLEDKSYDIVYDNLCYSSNAATIICEVLRGKTRKYVMTSSMAVYDPAINLSEEDFNPYEYTIAYGGRNDFNYGEGKRVAEAVVFQQATFPVVAVRFPVVIGENDYTKRLQFYVEHIVREEPVAVNHLDGELSFIHEEEAGGFLAWCGMEDIEGPINACSNGVVSSREIIHFIEENTGIKPLVQEVGDHVAPYNEVTNCTLHNGKANELGFPFRELKIEIEKVLRYYIHATK”, which protein production is on record?
**A.** The protein production was “failed”.

**Q.** Which protein production does the source give for “MMKLLSFDEACQWFDSLPAHKRIATLSPYYVLLDALRDTRLLATYIGFRQGDVFWMHSVHCSAAMAGEVIDLQSPYGYGGPISNCDDPVFLNMVWDLYVEFCARQGWLAEFVRFHPLGGVSSSYGGTIVVDRLTVAIDLTGPNIRSIYSTRCRTAVRKAINNGLNVRVGSERELREIFPHFYRDGMRAIAADKFYLFNDLYFSGFSTWKCATLLICHCDDDWLSAGIFLKDGNVMEYHLSATTPAGRNLGATNLLLDAAAHLGQEQGCSFLYLGGGTDSEKNNPLLFFKSGFSAATYPFLIGFTAFNQDKYQALREKFISDHKPTDRFLFYR” here?
**A.** Its protein production is “failed”.

**Q.** Which protein production does the source give for “MMKLMFASDIHGSLPATERVLELFAQSGAQWLVILGDVLNHGPRNALPEGYAPAKVAERLNEVAHKVIAVRGNCDSEVDQMLLHFPITAPWQQVLLEKQRLFLTHGHLFGPENLPALNQNDVLVYGHTHLPVAEQRGEIFHFNPGSVSIPKGGNPASYGMLDNDVLSVIALNDQSIIAQVAINP” here?
**A.** The protein production was “not failed”.

**Q.** For “MMKMMTRVLSSPSSHVSSLKYSPRRVIRASRDHLRAETLKSHQLPSGSSSTSLCSCGRKHFLEAASPTMPFLPICSPNASRSKDVSETFHPQRPDWYKELFAWFLSTGMRSYEAEVSLCDLNASFYDPFLENDRSFSCFMFVLFGKIAEYKRKLFEKLAGKAETVLEIGVGTGPNLKYFAGNENVCVFGMDPNHKMEKYACESAREAGMKPENFRFMHGVSKLLCFDL”, which protein production is on record?
**A.** The protein production was “failed”.

**Q.** With “MMKPSVSAAILAAGTSTRMNEMKQLAKIQGTYMLKYVIDQVSNHPFQHIFVIVGHQADIVMKMIQVEDKRVQWLVNDQYKQGQSTSFKLAMEQARQYGDAVMMFLADQPLIEKETVNIVLNEGITRVQEEPFIVRPMYEKKEGHPVYWGNIHALDCSAVNGDKGGKTLMEELERMLIPVHDQGVLVDVDTCEDYKKVNDLMKRKSPSTHLEHHHHHH” as the sequence, how does the protein production read?
**A.** Its protein production is “not failed”.

**Q.** With “MMKRHNILTVLAVLLLTFAACDKNSAPGFSFTTDSILTLTFDKELDAAFVGVGTQNYNPVGMRRSGDTLFIANRAEGSDGVWVVRASTGELLYSLTGWTYNGKNEKFDNQVMDVAVSSDYIFVVNRSSRIDLFRRNDYSYVTTIGRTGWQSSSLLQCEAAEVAGDKLFIRDKQKIKVVQISDCTPENRFKVPVFAQNTDSTSSNNGFNLESVARHEGLIYVSDYETSRILVIDPATVAVKGEPVRFLRSYRMPNKPLSMGFFQNEMYVVCANNCIVRVDLRTGKELGSYSSFAGGVGLGTPGRLLFHNDTFYLAGRNANAPRLIQGKVMFVEISELD” as the sequence, how does the protein production read?
**A.** Its protein production is “failed”.

**Q.** Which protein production does the source give for “MMLRRLALSAATGLMLALPALAETVSDFRLPNGLEVVVIEDHRAPVVTHMVWYRVGAADEPPGHSGIAHFLEHLMFKGTDEMSAGEFSATVEAQGGDDNAFTSWDYTAYFQRVAADRLDLMMKMEADRMRDLQMTEEDVRTERQVVLEERSQRTDSDPGAVFSEQSRAAAYLNHPYGIPIIGWRHEIEQLGREDAFSFYRTYYAPNNAILVVAGDVDPAEVRRMAEEHYGALEPTPNLPERLRPQEPPQLAERRLTFSDPRVAQPYVSRSYLAATRETGAQEKAAALTILAELLGGSPTTSLLSRELQFGPEPKAVWAQAYYDGGGLDSGTFGLAVVPAAGVSLQEAEDAMDAVVARFLKEGPDAEDFERIKTQLGAQDIYSRDNVDGLARRYGAALTTGLTVADVQAWPEVLQAVTPDEVMAAAREVFDRRRAVTGWLMQEDEEKSQ” here?
**A.** The protein production was “failed”.

**Q.** With “MMNETLKVIAERYSCRDFKNEMPSDELLQAIAEAAIQAPSGMNRQAWRVIVVKNKELMQEMEAEGLAYLAGMEDQSSYNRIMERGGRLFYGAPCMIVVPIDPTQYGPALVDCGILCQTIALAATSLGIANIMCGYTGLAFASGLRAEEFSKRLGFPEGYAFGCSVLLGHANTTKPPHVPDKDKITYVE” as the sequence, how does the protein production read?
**A.** The protein production was “not failed”.

**Q.** Which protein production does the source give for “MMNRILLIFLILMSTCFAGCFEQNNLEKSQEMAEIGFAYIGIDNDKAIEYYEKAIKLNPDDANAISFLGTLYDGEGDREKAYEYLTKALEMEPKNPWMYYNLGLYYLNHDDNMAIGCFEKALRIDPENECCWSQLGYTYYDIGDYTNSKLNFEKAYEINPKDQYSDMIEKCNEGI” here?
**A.** The protein production was “failed”.

**Q.** Which protein production does the source give for “MMNSDRNKYRKENDMGKQVRDKEVQEIMDYIMNKGEDSEERVYKLFKMNGVIYEIACNISRNQNSETTQNQIRKFYDYTIKINSKDEKKAKIKLAMMMPQIYYAIQRKVISSDSPFVKFLEDSIDKLNKTEDFENAFNRFLNVFQAIVAYSKKSRSDRNE” here?
**A.** Its protein production is “failed”.

**Q.** For “MMNYNTPKVSIVVPSLNSISYIRECIDSILNQTLKDIEILCIDANSTDGTLEVLKNYEKKDKRLRVIISDKKSYGYQMNLGIKEAKGEYLGIVESDDYIKTNMYERLYEIAKKNDCEVVKGDFYILESNKGKYSKITPIDFLYNQIISFKTHPNIFNFQSINPIGIYRLDLLRTNQIKLNETPGASYQDNGLWFQIFALAKSIYFINEAFYMLRRDNPNSSVKSKEKVYCACEEYDFIRDFLKKHPDLEKTLAPICALHRFGNYMFTLERIDERYKLDFLKRFSQDFRKILKDKELDENLFGDGDMKIIYSIVENPENYYFLYMGYCNDMFGKLYFGASERIKWQLSYRIGKLLIDLKNPVQILKFPFKLFLEIKQFKFEQKIYKTTIKFYPNLQLPPLEEYSDYEQALKTKKHLSYILGKSFINNPILFIFKIKKIYKQYKKDISSSKKNIKELSDYDFLLNRHKQIFDYTPDFKCPVTFNEKLIYRILYDRSCIYSFLADKIKMRFYVASALSDNHEYSWDKIDILNEKSILFNNIDDLQDKIFETNKCKYLPKIYGIYKNIYDINFNELPNSFVLKTNHDCGGYVIVENKQEFLRDTVVFSNAMKKLKKHLEWNYYSVFREWHYKDIEPRVFAEELLLGENKKPADTYKFHIFDKENLSNNFIQVTTDRFDNYQRAMFDLSWNLAPFNFMYDNKNVTMIPKKPNLLDSMINISLILAKPFDYVRVDLYQFDKKIYIGELTFTHGAAGEKVIPKEWDKKLGDLWRLKRLDNASK”, which protein production is on record?
**A.** Its protein production is “failed”.

**Q.** With “MMQESGTETKSNGSAIQNGSGGSNHLLECGGLREGRSNGETPAVDIGAADLAHAQQQQQQWHLINHQPSRSPSSWLKRLISSPWELEVLQVPLWGAVAETKMSGPVCQPNPSPF” as the sequence, how does the protein production read?
**A.** The protein production was “failed”.

**Q.** Which protein production does the source give for “MMQPKFCTRCLAMSTRPRITFNRDGVCNACLWQEQKSSVDWDDRNSKLLSLLDSHRSKNNSYDVIVPVSGGKDGSYVAYNLKHKFNMNPLCVTVTPPLETQLGAQNLKNFIKSGYDQVSININPETIRNINRAGFVHHGFPYFGWLVAIVTSVTRVAQQMNVPLIMYGEDAEMEYGGSSEKANLTTFGIEYMKRVGFEAGYEKVFSTLDLSDSDLYWLTFAEQDKTQVLFSHWSYFENWDPYRNYLVAKKQCGLQEADDTNFGTFTNFAQNDQYLYVLHTYLMYLKFGFGRSNQDACIEIRRGAMKREQAINLVRLYDGQFPDEFLQMYLEYYQMSEAEFNATLARWVNKDLFELKDGLWSPTFTIQ” here?
**A.** Its protein production is “failed”.

**Q.** With “MMQVQYIIWLSCCFKRMNKDREFTESKTIKQNTKMKKRILGAALLVAIAVAAGWNYNQSRNEVPLSDLALANAEALAQGETDWGNCTYYGCIVDFSSTCNVYSSIWGNLIKVCPNMRG” as the sequence, how does the protein production read?
**A.** Its protein production is “failed”.

**Q.** Which protein production does the source give for “MMRAKVNQGINLNDYNGVWVIGEQREGKINPVTIELIGEGRKLADQLGKELAVVIAGYEVEKEVKELLHYSVDKVYYINDPLLKDFTTDGYAISIANLIERKKPEVVLVGATSIGRDIAPRIAGKVGTGLTADCTKLEIDSTDNKLLQTRPAFGGNLMATIVCPKNRPQMSTVRPGVMAKAVRNESETGILEVVTPELTEKMIRTRLVEIL” here?
**A.** The protein production was “failed”.

**Q.** Which protein production does the source give for “MMRRQASVLLLVSMVSATVLPVFARAPGEREPSCAATSIVLPAGARYPNGIAHAADGTLYVGLVTSGRILRKPPGGEWETFFAGSPAIFAATALRLDEPRGLLWGNSPDFLPAGRRRPHGVFALDLASGAVRRYLTLPGDGMGNDLAVAPDGTVYLSETRDGSLMRLRPGEPAFQVLLRDSRLAGPGGLGAAGIVRVDDDTLLVGNFGSGAIHVVEGVATRPRLREMELPRTLENPDGMALAPDGSLIVLENAIRSGAGKVLRIAEPLAPGRRGIEVIREGLESPVNLTVTGQGCAYVSESRIRHRLLPGREGEVPARFLIHRLPLDAAGGR” here?
**A.** Its protein production is “failed”.

**Q.** Which protein production does the source give for “MMRRYFYQFSQKMITSVWWLLFVPMLLFAVMSPNIILGDNATFGTSTTLLTTGLIIVIVAVLIMNYAYPRVHRGLYRLLITKQLRTAGVLLALVFIGQLVFVTFVHPVSGFDAGMLHYAATSAKHVQEVGVTAYYSLNQNNMPIMLFMHWLSEVTGQTSWQFFDYVTLFFVDLSAAFNLMSVFVVRRSALGIAMYLHAGWLAVFPSIIMPYTDAWGLPLVSFFMLCYFVMSQTKRPPLLRVAAAVGFGVSVTLTYFMKPSSIIPVIAIAIISFLARLRSRQGSQTTMIFVTVAMAILMLESAGLTYHYTNQAIQNQTYIKIDKSRSIPAIHFMAMGVYGSGGYSEKQAIQMAVLPTKAQKTAYSIKMLKRQLKKLGPWGYLEFLVKKQRNNTADGTFGWLKEGNFFRENQKPSNQGFSNWLKNFIYLYGRHIADFRFVAQLWWLVLLVIIALGFGPRWQLIQLLRLAMIGGFIFLLLFEGGRSRYLIQYLPCLLLLGAFSFERAVANIRRVRDWYQRKLRAAIAADESE” here?
**A.** The protein production was “failed”.

**Q.** Which protein production does the source give for “MMSRKRWLALIAAAMLFVASAAISLVSSPAVDVDEWVGTGTSYKQTIVETGTDFGKSIAILELSGVIQDTGSAPSLLNTGVYHHRDFLKQLEKAGEDPNIAGIILQVNTPGGGVLESAEIHKQVEEIVQDSEKPVYVSMGNMAASGGYYISAPATKIYAHPQTITGSIGVIMQSIDISGLAENLGIEFNTFKSGPYKDILSQTREVTDEEEDILQTLVDEMYDEFVRVIVDGRGMSETEVRELADGRIYTGSQAVATGLVDELGGLDDVIESMKEDLGADYNVIRYEHSLGLYDFFSMSTNRLLSPSYELQSIERLLNQSNTPTLQYLYAELEHHHHHH” here?
**A.** Its protein production is “not failed”.
